For data set [1], the target named is T1, FadRSa (Sulfolobus acidocaldarius) (UniProt Q4J9S1).
T1 sequence: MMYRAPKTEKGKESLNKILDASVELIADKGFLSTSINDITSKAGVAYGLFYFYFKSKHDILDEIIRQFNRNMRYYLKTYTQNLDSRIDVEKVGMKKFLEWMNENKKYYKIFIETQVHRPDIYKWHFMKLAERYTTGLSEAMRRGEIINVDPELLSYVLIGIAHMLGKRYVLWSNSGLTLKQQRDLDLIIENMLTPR
Briefly: Cu-phenanthroline footprinting. Conditions: EMSA/DNase I: 20 mM Tris-HCl pH 8.0, 1 mM MgCl2, 0.1 mM DTT, 12.5% glycerol, 50 mM NaCl, 0.4 mM EDTA, 37 C; EMSA with about 0.1 nM 32P-DNA and excess …. A general note: Mobility shift assays separate free from complexed probe on a gel.

Data set [2] deals with T1, FadRSa (Sulfolobus acidocaldarius). Briefly: DNase I footprinting. Conditions: EMSA/DNase I: 20 mM Tris-HCl pH 8.0, 1 mM MgCl2, 0.1 mM DTT, 12.5% glycerol, 50 mM NaCl, 0.4 mM EDTA, 37 C; EMSA with about 0.1 nM 32P-DNA and excess ….
The target is the same in data set [3]. Briefly: EMSA. Particulars: EMSA/DNase I: 20 mM Tris-HCl pH 8.0, 1 mM MgCl2, 0.1 mM DTT, 12.5% glycerol, 50 mM NaCl, 0.4 mM EDTA, 37 C; EMSA with about 0.1 nM 32P-DNA and excess ….
In data set [4] the target is T2, FadRSa (Sulfolobus acidocaldarius, UniProt Q4J9S1, M101A).
T2 construct: gene Saci_1107; full-length, recombinant in E. coli Rosetta (DE3), His-tagged (N-terminal from pET45b or C-terminal from pET24a; mutants C-terminal), tag kept; homodimer, 44 kDa
Briefly: EMSA, ligand response of mutant (fraction of bound DNA). Conditions: pH 8.0, 37 °C; allosteric inducer. The format is binding.

The target of data set [5] is T3, FadRSa (Sulfolobus acidocaldarius, UniProt Q4J9S1).
T3 construct: gene Saci_1107; full-length, recombinant in E. coli Rosetta (DE3), His-tagged (N-terminal from pET45b or C-terminal from pET24a; mutants C-terminal), tag kept; homodimer, 44 kDa
The data set is described as follows: EMSA, release of FadRSa from operator DNA. The data set is classed as binding. Particulars: 154-bp Saci_1106 operator probe, pH 8.0, 37 °C; allosteric inducer.

In data set [6] the target is T1, FadRSa (Sulfolobus acidocaldarius). The data set is described as follows: footprinting. Particulars: EMSA/DNase I: 20 mM Tris-HCl pH 8.0, 1 mM MgCl2, 0.1 mM DTT, 12.5% glycerol, 50 mM NaCl, 0.4 mM EDTA, 37 C; EMSA with about 0.1 nM 32P-DNA and excess ….
The target in data set [7] is T4, FadRSa (Sulfolobus acidocaldarius, UniProt Q4J9S1 1-196).
T4 sequence: T1 sequence
Briefly: X-ray crystallography; 3.29 A; three dimers with two duplexes; EMSA/DNase I: 20 mM Tris-HCl pH 8.0, 1 mM MgCl2, 0.1 mM DTT, 12.5% glycerol, 50 mM NaCl, 0.4 mM EDTA, 37 C; EMSA with about 0.1 nM 32P-DNA and excess nonspecific competitor DNA. Particulars: protein: recombinant; (N-terminal pET45b or C-terminal pET24a His tag); chain copies: 2; blunt.

Data set [8] concerns the molecule itself. Briefly: SEC; free purified FadRSa; apparent molecular weight from a calibrated column (Superdex 200 Increase 10/30 GL, 20 mM Na2HPO4 pH 7.4, 150 mM NaCl). Background: In gel filtration, larger molecules generally elute earlier.
Data set [9] deals with the molecule itself. The data set is described as follows: crystal structure; SeMet FadRSa, SAD, 2.4 Å, space group P21, two molecules per asymmetric unit; acyl-CoA in subunit B.
Data set [10] concerns the molecule itself. The data set is described as follows: native gel or EMSA; dimer with dimer on operator DNA: 45-bp 32P-labelled wildtype or mutated Saci_1123 operator probes; 20 mM Tris-HCl pH 8.0, 1 mM MgCl2, 0.1 mM DTT, 12.5% glycerol, 50 mM NaCl, 0.4 mM EDTA, 37 °C; 6% acrylamide gels.
For data set [11], the target named is T4, FadRSa. The data set is described as follows: SEC; 40:1 protein:DNA; complex B2, 179 kDa, two dimers; EMSA/DNase I: 20 mM Tris-HCl pH 8.0, 1 mM MgCl2, 0.1 mM DTT, 12.5% glycerol, 50 mM NaCl, 0.4 mM EDTA, 37 C; EMSA with about 0.1 nM 32P-DNA and excess nonspecific competitor DNA. Particulars: protein: recombinant; (N-terminal pET45b or C-terminal pET24a His tag); chain copies: 2; label: 32P 5' end (EMSA); none (SEC); blunt.

Data set [12] concerns the target T4, FadRSa. Briefly: EMSA; single complex B; EMSA/DNase I: 20 mM Tris-HCl pH 8.0, 1 mM MgCl2, 0.1 mM DTT, 12.5% glycerol, 50 mM NaCl, 0.4 mM EDTA, 37 C; EMSA with about 0.1 nM 32P-DNA and excess nonspecific competitor DNA. Particulars: protein: recombinant; (N-terminal pET45b or C-terminal pET24a His tag); chain copies: 2; label: 32P 5' end (EMSA); none (SEC); blunt.

Data set [13] addresses T4, FadRSa. Briefly: EMSA; two complexes B1 and B2; EMSA/DNase I: 20 mM Tris-HCl pH 8.0, 1 mM MgCl2, 0.1 mM DTT, 12.5% glycerol, 50 mM NaCl, 0.4 mM EDTA, 37 C; EMSA with about 0.1 nM 32P-DNA and excess nonspecific competitor DNA. Conditions: protein: recombinant; (N-terminal pET45b or C-terminal pET24a His tag); chain copies: 2; label: 32P 5' end; blunt.

The source of these data is article PMC6449355, “A TetR-family transcription factor regulates fatty acid metabolism in the archaeal model organism Sulfolobus acidocaldarius” (Nature Communications, 2019).

Numbering of substitutions follows the chain as printed. In names and notes the source's numbering stands.

T2 sequence (Q4J9S1 entry or part of it M101A): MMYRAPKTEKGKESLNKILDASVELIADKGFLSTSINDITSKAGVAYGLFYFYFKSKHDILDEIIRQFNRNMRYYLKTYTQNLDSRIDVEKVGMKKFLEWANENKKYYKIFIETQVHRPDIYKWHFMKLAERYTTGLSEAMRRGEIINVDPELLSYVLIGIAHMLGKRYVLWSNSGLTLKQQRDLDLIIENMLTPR

As to “CGCCCTTTAGAGTGTGGAAGAAGTCAGTGGCACAGTTCTCTTCGTTTAAGCTTTTTTGTATCTCTTCATCAAAATTAAACTATTTGTTTTATTCATTATATCTTAATGTATTTGTGTAAATAATCTTCTTTATTCTAATCAATAAAATTATCGGAGAAGTTTATTATCGAGTTTACCTTTTAACTACAATGATAGTCGACTCAAAAATCAAGTAGTAAAGGTGGTGTGATGTATAGGGCTCC (double strand) [Saci_1107 (fadRSa) peak 2 fragment]”, the binding result in data set [1], in [2] and in [3] was “binds” each time. Take “CTTCACTCCAAATCCTATTAGGAAAGCTGACACTGAACCGACCTTTTAACTACAATGATAGTCGACTCAAAAATCAAGTATAATATAGTCGAAATATGCCCTCTTGAATAAAACCATGAAATATAAATGAGTCTATTCTGATCTGATAAAGTTC (double strand) [Saci_1106 peak 1 fragment]”: the binding entry in data set [2] and in data set [3] was “binds” throughout. As to `CCCCCCCC/C=C\CCCCCCCC(=O)SCCNC(=O)CCNC(=O)[C@H](O)C(C)(C)COP(=O)(O)OP(=O)(O)OC[C@H]1O[C@@H](n2cnc3c(N)ncnc32)[C@H](O)[C@@H]1OP(=O)(O)O` [oleoyl-CoA], the “EMSA, ligand response of mutant (fraction of bound DNA)” value in [4] is “alanine mutation of the allosterically altered Met101 residue desensitizes the protein to oleoyl-CoA”. Also, the “EMSA, release of FadRSa from operator DNA” value in data set [5] is reported as “addition of acetyl-CoA or hexanoyl-CoA does not affect sensitivity of the protein to oleoyl-CoA”.

“CTACTTTCTAATATCACTATATTCACGCCTGGCAGACCCGACCTACTATGTTTAAACTTTTATAAAGTTGACATTATAATCAACTGATTATTTTAAAGGCAGTTCTAATTTTTCAAATAAACATAACACTAATCCTATAGATATAACTAATAAC (double strand) [Saci_1123 peak 4 footprint fragment]”: in [6], the binding entry is listed as “binds”.

B1: fadRSa operator 21-mer (dsDNA)
DNA 1: GTCGACTCAAAAATCAAGTAG
DNA 2: CTACTTGATTTTTGAGTCGAC
For B1, the binding result in data set [7] is reported as “binds”.

B2: FadRSa (TetR-family transcriptional regulator encoded by Saci_1107), recombinant His-tagged (natural protein, Sulfolobus acidocaldarius, UniProt Q4J9S1 1-196, looked up)
chain: T1 sequence
notes: FadRSa, TetR-family regulator encoded by Saci_1107 of Sulfolobus acidocaldarius; the fadRSa coding region amplified from genomic DNA; An N-terminally His-tagged (pET45b) and a C-terminally His-tagged (pET24a) construct were both made; also called wildtype FadRSa; source: E. coli Rosetta (DE3), purified (heat treatment 80 °C, His GraviTrap IMAC)
By stoichiometry N is commonly meant a count of units in the complex or per binding partner. For B2, the “stoichiometry N” value in data set [8] is 2.

B3: SeMet FadRSa (selenomethionine-substituted FadRSa) (natural protein, Sulfolobus acidocaldarius, UniProt Q4J9S1 1-196, looked up)
chain: T1 sequence
modifications: selenomethionine-substituted
notes: FadRSa, TetR-family regulator encoded by Saci_1107 of Sulfolobus acidocaldarius; the fadRSa coding region in pET45b (BamHI/HindIII); One subunit (B) of the crystallised dimer carried an acyl-CoA, likely derived from E. coli; also called SeMet-substituted FadRSa; SeMet-derivated FadRSa
Regarding B3, in data set [9], the binding result is listed as “binds”.

B4: FadRSa N37A (natural protein, Sulfolobus acidocaldarius, UniProt Q4J9S1 1-196, looked up)
chain: T1 sequence with N37A
notes: FadRSa, encoded by Saci_1107 of Sulfolobus acidocaldarius; made by site-directed mutagenesis with pET24axfadRSaNdenull as template; also called N37A mutant FadRSa; source: E. coli Rosetta (DE3), purified (heat treatment 80 °C, His GraviTrap IMAC)
B4: the binding result in [10] is “binds”.

B5: fadRSa operator 45-bp (dsDNA)
DNA 1: ACTACAATGATAGTCGACTCAAAAATCAAGTAGTAAAGGTGGTGT
DNA 2: ACACCACCTTTACTACTTGATTTTTGAGTCGACTATCATTGTAGT
In the case of B5, the binding result in data set [11] is “binds”.

B6: Saci_1123 operator 45-bp (dsDNA)
DNA 1: ACTACATAATCAGTTGATTATAATGTCAACTTTATAAAGTGGTGT
DNA 2: ACACCACTTTATAAAGTTGACATTATAATCAACTGATTATGTAGT
As to B6, the binding result in data set [12] is “binds”.

B7: mutated Saci_1123 operator 45-bp (dsDNA)
DNA 1: B6 DNA 1 with A9G, A20C
DNA 2: B6 DNA 2 with T26G, T37C
Regarding B7, the binding result in data set [13] is “binds”.
